T1: recombinant human CD73 protein (human, UniProt P21589 27-547)
T1 construct: Bought soluble protein; The background says that CD73 forms a homodimer; also called soluble CD73; free CD73 protein
T1 sequence (looked up): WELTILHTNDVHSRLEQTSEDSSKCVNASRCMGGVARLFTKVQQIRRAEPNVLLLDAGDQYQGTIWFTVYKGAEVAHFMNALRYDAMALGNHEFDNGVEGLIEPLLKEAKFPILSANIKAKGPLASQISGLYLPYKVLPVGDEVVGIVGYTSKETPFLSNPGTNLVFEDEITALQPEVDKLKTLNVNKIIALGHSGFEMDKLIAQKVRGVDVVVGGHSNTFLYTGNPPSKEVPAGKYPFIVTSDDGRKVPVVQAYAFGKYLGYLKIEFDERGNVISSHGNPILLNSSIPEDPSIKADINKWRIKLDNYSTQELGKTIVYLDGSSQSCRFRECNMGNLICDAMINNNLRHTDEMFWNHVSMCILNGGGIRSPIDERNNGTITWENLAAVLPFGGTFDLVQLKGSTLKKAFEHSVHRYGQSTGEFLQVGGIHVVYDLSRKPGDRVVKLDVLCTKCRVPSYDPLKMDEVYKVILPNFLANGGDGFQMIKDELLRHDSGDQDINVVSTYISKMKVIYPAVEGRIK

T2: human CD73 on the cell surface (MDA-MB-231 and SKOV3 tumor cells) (human, UniProt P21589 27-549)
T2 construct: whole, on cells; also called cell surface CD73; CD73 on the surface of human tumor cells
T2 sequence (looked up): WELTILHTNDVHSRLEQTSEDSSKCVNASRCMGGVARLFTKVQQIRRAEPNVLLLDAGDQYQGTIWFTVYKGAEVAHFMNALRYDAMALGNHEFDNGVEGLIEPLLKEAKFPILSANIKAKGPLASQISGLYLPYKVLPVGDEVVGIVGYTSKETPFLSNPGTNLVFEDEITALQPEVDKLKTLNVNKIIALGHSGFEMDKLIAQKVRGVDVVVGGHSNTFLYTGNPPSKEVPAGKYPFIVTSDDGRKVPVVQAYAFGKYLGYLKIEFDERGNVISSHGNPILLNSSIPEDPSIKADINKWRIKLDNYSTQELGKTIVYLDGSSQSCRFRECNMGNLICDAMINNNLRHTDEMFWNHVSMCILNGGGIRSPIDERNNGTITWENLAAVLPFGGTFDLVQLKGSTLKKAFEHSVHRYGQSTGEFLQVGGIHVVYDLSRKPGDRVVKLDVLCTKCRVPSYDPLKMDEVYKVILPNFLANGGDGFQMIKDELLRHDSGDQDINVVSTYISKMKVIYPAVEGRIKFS

T3: N-terminal portion of the CD73 protein (Homo sapiens (Human), UniProt P21589 27-317, limits assumed)
T3 construct: also called CD73 N-terminal protein; N-terminus of the CD73 protein
T3 sequence: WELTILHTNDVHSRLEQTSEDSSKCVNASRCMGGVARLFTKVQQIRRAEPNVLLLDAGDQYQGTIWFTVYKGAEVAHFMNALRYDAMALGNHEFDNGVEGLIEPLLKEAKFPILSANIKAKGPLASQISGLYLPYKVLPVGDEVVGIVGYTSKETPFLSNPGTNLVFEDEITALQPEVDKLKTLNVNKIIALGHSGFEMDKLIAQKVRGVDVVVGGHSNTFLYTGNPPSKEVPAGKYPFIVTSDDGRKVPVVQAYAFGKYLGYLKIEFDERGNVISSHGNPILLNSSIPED

B1: Hab1F2F9.15 (antibody, human IgG1, kappa, L234A L235A, V domains shown)
VH: QVQLVQSGAEVKKPGASVKVSCKASGYTFTSYWMHWVRQAPGQRLEWMGNINPSNGGTKYSQKFQGRVTITVDTSASTAYMELSSLRSEDTAVYYCARRDYGSPSYWGQGTTVTVSS
VL: DIQMTQSPSSLSASVGDRVTITCKASQDINSYLTWFQQKPGKAPKSLIYRTNILLDGVPSRFSGSGSGTDYTLTISSLQPEDFATYYCLQYHEFPVTFGGGTKLEIKR
notes: Humanized 1F2F9; also called Huab1F2F9.15; HuablF2F9.15
B2: Hab7C3C2.5 (antibody, human IgG1, kappa, L234A L235A, V domains shown)
VH: QVQLVQSGAEVKKPGASVKVSCKASGYTFTSYDINWVRQATGQGLEWIGWIYPRDGFTKYNEKFKGRVTLTVNTSISTAYMELSSLRSEDTAVYYCARKEGYRGDWYFDVWGQGTTVTVSS
VL: DIQMTQSPSSLSASVGDRVTITCRASGNVHNYLAWYQQKPGKAPKLLLYNAKTLASGVPSRFSGSGSGTDYTLTISSLQPEDFATYYCQHFWSTPWTFGGGTELEIKR
notes: Humanized 7C3C2; also called Hab7C3C.5

Legend:
[1] = target: T1, recombinant human CD73 protein; experiment: ELISA, plate coated with recombinant CD73 protein at 1 µg/mL
Experimental: The affinity of the humanized antibodies to the recombinant CD73 protein was determined using an ELISA method. A elisa plate was coated with the CD73 protein at a concentration of 1 μg/mL. 5-fold gradient dilutions (0-66.7 nM) of the test antibodies were added.

[2] = target: T1, recombinant human CD73 protein; experiment: BLI (Fortebio), human CD73 on HIS1K biosensors, antibody as analyte
Experimental: The humanized antibody VH and VL were separately constructed into eukaryotic expression vectors containing the hIgG1-kappa constant region with L234A, L235A, P329A and P331S mutations (abbreviated as hIgG1 in the present application). The affinity of all humanized antibodies was assayed in this example. Human CD73 protein was immobilized onto HIS1K biosensors to achieve a binding response threshold of 0.3 nm. After a 120-second baseline step, the sensors were separately immersed in anti-CD73 antibody analytes diluted in a gradient with a 0.02% PBST buffer (each antibody was diluted in a 2-fold gradient with an initial concentration of 25 nM, resulting in 7 concentration gradients). The times for the ligand-analyte binding and dissociation were 120 s and 300 s, respectively. The data of the antigen-antibody affinity were calculated by regression according to the binding curves using an analysis software.

[3] = target: T2, human CD73 on the cell surface …; experiment: flow cytometry on MDA-MB-231 cells
Experimental: In this example, the exemplary antibodies of the present application were compared with anti-CD73 antibodies described in other patent applications. Antibodies MEDI9447 and Hu101-28 (with CDR sequences from PCT patent applications WO 2016/075099 and WO 2018/137598, respectively) were cloned into eukaryotic expression vectors containing the hIgG1-kappa constant region. The binding ability of the humanized antibodies Hab7C3C2.5 and Hab1F2F9.15 to cell surface CD73 was assessed using tumor cell lines MDA-MB-231 and SKOV3 which endogenously express human CD73 on the cell surface. The cells were seeded in a 96-well plate at a density of 2×10⁶ cells/mL, with 100 μL per well. 4-fold gradient dilutions (0-100 nM) of the antibodies were added, and the mixture was incubated at 4° C. for 1 h. A goat anti-human secondary antibody was added, and the mixture was incubated at 4° C. in the dark for 50 min for labeling. The fluorescence intensity of the cells was then measured by a flow cytometer.

[4] = target: T1, recombinant human CD73 protein; experiment: cell-based or functional assay
[5] = target: T3, N-terminal portion of the CD73 protein; experiment: ELISA, plate coated with CD73 N-terminal protein at 1 µg/mL
Experimental: In this example, the C-terminal portion (SEQ ID NO. 41) and the N-terminal portion (SEQ ID NO. 42) of the CD73 protein were separately constructed, and the epitopes recognized by the antibodies were detected by ELISA method. Elisa plates were respectively coated with the CD73 N-terminal and C-terminal proteins at a concentration of 1 μg/mL. The test antibodies were diluted in a gradient.

Binder | EC50 [1] [nM] | Kd [2] [nM] | koff [2] [s⁻¹] | kon [2] [M⁻¹ s⁻¹] | EC50 [3] [nM] | Protein enzymatic activity inhibition IC50 [4] [nM] | binding result [5]
B1 | 0.011 | 0.779 | 0.0016 | 2.06e+06 | 0.48 | 0.011 | no binding
B2 | 0.013 | 0.765 | 0.00272 | 3.56e+06 | 0.41 | 0.018 | no binding

— patent US20260152567A1 (CSPC MEGALITH BIOPHARMACEUTICAL, published 2026)
